Sequences and labels used below:
B1: FBXO3 (parent)
chain: AGGFQQRQGLKYCLPLTFCIHTGL
B2: RAB11A (parent)
chain: AVPTDEARAFAEKNGLSFIETSAL
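Note: lentivirally expressed fusions sorted by FACS into six bins by GFP to DsRed ratio, PSI derived from sequencing read proportions per bin multiplied by bin number.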

Variants of B1 are the subject of one data set. The experiment in a line: protein stability index of a GFP-peptide fusion (GPS, HEK-293T) (PSI 1-6); higher = more stable. As to conditions: c terminus: a fixed tail appended.
On to AGGFQQRQGLKYCLPLTFYIHTGL [C19Y], for which the protein stability index was found to be 2.67.
Still for that read-out and setting: as for AGGFQQRQGLKYCLPLTFVIHTGL [C19V], the figure is 2.83.
On to AGGFQQRQGLKYCLPLTFRIHTGL [C19R], for which the protein stability index amounted to 2.8.
Turning to AGGFQQRQGLKYCLPLTFTIHTGL [C19T], the protein stability index came to 3.13.
For the variant AGGFQQRQGLKYCLPLTFSIHTGL [C19S], the protein stability index is 2.64.
As for AGGFQQRQGLKYCLPLTFCIHTML [G23M], the protein stability index is 2.31.
Regarding AGGFQQRQGLKYCLPLTFCIHTDL [G23D], the protein stability index stood at 2.58.
With AGGFQQRQGLKYCLPLTFCIHTCL [G23C], the protein stability index came out at 3.16.
Consider AGGFQQRQGLKYCLPLTFCIHTKL [G23K], for which the protein stability index came to 2.81.
Consider AGGFQQRQGLKYCLPLTFCIHTLL [G23L], for which the protein stability index was 2.67.
Same read-out and setting: as for AGGFQQRQGLKYCLPLTFCIHTFL [G23F], the figure is 3.1.
Same read-out and setting: to AGGFQQRQGLKYCLPLTFCIHTWL [G23W] belongs 2.97; to AGGFQQRQGLKYCLPLTFCIHTQL [G23Q], 3.06.
Consider AGGFQQRQGLKYCLPLTFCIHTIL [G23I], for which the protein stability index came out at 1.85.
With AGGFQQRQGLKYCLPLTFCIHTPL [G23P], the protein stability index turned out to be 3.02.
AGGFQQRQGLKYCLPLTFCIHTAL [G23A]: the protein stability index was determined as 3.52.
As to AGGFQQRQGLKYCLPLTFCIHTRL [G23R], the protein stability index came out at 3.05.
For the variant AGGFQQRQGLKYCLPLTFCIHTNL [G23N], the protein stability index amounted to 2.97.
Consider AGGFQQRQGLKYCLPLTFCIHTEL [G23E], for which the protein stability index was 2.4.
Turning to AGGFQQRQGLKYCLPLTFCIHTVL [G23V], the protein stability index was determined as 3.1.
On to AGGFQQRQGLKYCLPLTFCIHPGL [T22P], for which the protein stability index is 3.88.
In the case of AGGFQQRQGLKYCLPLTFCIHVGL [T22V], the protein stability index came out at 3.1.
For the variant AGGFQQRQGLKYCLPLTFCIHDGL [T22D], the protein stability index came to 1.27.
In the case of AGGFQQRQGLKYCLPLTFCIHMGL [T22M], the protein stability index was found to be 2.18.
On to AGGFQQRQGLKYCLPLTFCIHQGL [T22Q], for which the protein stability index is 2.23.
In the case of AGGFQQRQGLKYCLPLTFCIHKGL [T22K], the protein stability index was determined as 2.49.
For AGGFQQRQGLKYCLPLTFCIHLGL [T22L], the protein stability index was determined as 2.59.
AGGFQQRQGLKYCLPLTFCIHAGL [T22A]: the protein stability index turned out to be 1.86.
In the case of AGGFQQRQGLKYCLPLTFCIHSGL [T22S], the protein stability index stood at 3.29.
AGGFQQRQGLKYCLPLTFCIHYGL [T22Y]: the protein stability index came out at 3.75.
The same measure, in the same setting: to AGGFQQRQGLKYCLPLTFCIHRGL [T22R] belongs 2.2; to AGGFQQRQGLKYCLPLTFCIHEGL [T22E], 2.24; to AGGFQQRQGLKYCLPLTFCIHHGL [T22H], 2.17.
With AGGFQQRQGLKYCLPLTFCIHWGL [T22W], the protein stability index is 2.86.
Take AGGFQQRQGLKYCLPLTFCIHNGL [T22N]: the protein stability index is 3.55.
Turning to AGGFQQRQGLKYCLPLTFCIHCGL [T22C], the protein stability index was 2.09.
Same read-out and setting: as for AGGFQQRQGLKYCLPLTFCIHTGI [L24I], the figure is 2.69.
With AGGFQQRQGLKYCLPLTFCIHTGE [L24E], the protein stability index amounted to 3.16.
Still for that read-out and setting: as for AGGFQQRQGLKYCLPLTFCIHTGW [L24W], the figure is 2.7.
As to AGGFQQRQGLKYCLPLTFCIHTGK [L24K], the protein stability index was 1.66.
On to AGGFQQRQGLKYCLPLTFCIHTGC [L24C], for which the protein stability index is 2.15.
Turning to AGGFQQRQGLKYCLPLTFCIHTGH [L24H], the protein stability index is 2.7.
As to AGGFQQRQGLKYCLPLTFCIHTGG [L24G], the protein stability index is 2.74.
With AGGFQQRQGLKYCLPLTFCIHTGA [L24A], the protein stability index worked out at 2.48.
Same read-out and setting: to AGGFQQRQGLKYCLPLTFCIHTGM [L24M] belongs 2.99; to AGGFQQRQGLKYCLPLTFCIHTGT [L24T], 2.42; to AGGFQQRQGLKYCLPLTFCIHTGS [L24S], 2.14.
With AGGFQQRQGLKYCLPLTFCIHTGP [L24P], the protein stability index worked out at 1.88.
Take AGGFQQRQGLKYCLPLTFCIHTGN [L24N]: the protein stability index is 2.3.
With AGGFQQRQGLKYCLPLTFCIHTGR [L24R], the protein stability index stood at 2.73.
As for AGGFQQRQGLKYCLPLTFCIHTGV [L24V], the protein stability index was determined as 3.48.
Take AGGFQQRQGLKYCLPLTFCIHTGY [L24Y]: the protein stability index worked out at 2.45.
As to AGGFQQRQGLKYCLPLTFCIHTGD [L24D], the protein stability index was 2.42.
On the same count and under the same terms, to AGGFQQRQGLKYCLPLTFCIHTGF [L24F] belongs 2.33; to AGGFQQRQGLKYCLPLTFCIHTGQ [L24Q], 1.96; to AGGFQQRQGLKYCLPLTFCIPTGL [H21P], 2.76.
In the case of AGGFQQRQGLKYCLPLTFCICTGL [H21C], the protein stability index stood at 3.66.
On the same count and under the same terms, as for AGGFQQRQGLKYCLPLTFCIQTGL [H21Q], the figure is 2.73; as for AGGFQQRQGLKYCLPLTFCIITGL [H21I], 2.36.
As for AGGFQQRQGLKYCLPLTFCIYTGL [H21Y], the protein stability index turned out to be 3.41.
On to AGGFQQRQGLKYCLPLTFCIDTGL [H21D], for which the protein stability index turned out to be 2.99.
For the variant AGGFQQRQGLKYCLPLTFCIETGL [H21E], the protein stability index was determined as 1.98.
Regarding AGGFQQRQGLKYCLPLTFCIMTGL [H21M], the protein stability index was found to be 1.72.
Regarding AGGFQQRQGLKYCLPLTFCIKTGL [H21K], the protein stability index was 2.03.
As for AGGFQQRQGLKYCLPLTFCILTGL [H21L], the protein stability index was found to be 2.46.
In the case of AGGFQQRQGLKYCLPLTFCIWTGL [H21W], the protein stability index was found to be 2.15.
On the same count and under the same terms, to AGGFQQRQGLKYCLPLTFCIFTGL [H21F] belongs 3.32.
Still for that read-out and setting: to AGGFQQRQGLKYCLPLTFCITTGL [H21T] belongs 2.59.
For the variant AGGFQQRQGLKYCLPLTFCIGTGL [H21G], the protein stability index was 2.73.
Same read-out and setting: as for AGGFQQRQGLKYCLPLTFCISTGL [H21S], the figure is 2.72.
As to AGGFQQRQGLKYCLPLTFCIVTGL [H21V], the protein stability index turned out to be 3.83.
As to AGGFQQRQGLKYCLPLTFCFHTGL [I20F], the protein stability index was 2.34.
As to AGGFQQRQGLKYCLPLTFCVHTGL [I20V], the protein stability index came to 2.78.
Regarding AGGFQQRQGLKYCLPLTFCPHTGL [I20P], the protein stability index amounted to 2.11.
On the same count and under the same terms, as for AGGFQQRQGLKYCLPLTFCTHTGL [I20T], the figure is 2.56; as for AGGFQQRQGLKYCLPLTFCGHTGL [I20G], 2.69.
Same read-out and setting: to AGGFQQRQGLKYCLPLTFCNHTGL [I20N] belongs 2.33.
In the case of AGGFQQRQGLKYCLPLTFCLHTGL [I20L], the protein stability index worked out at 3.23.
Take AGGFQQRQGLKYCLPLTFCRHTGL [I20R]: the protein stability index was 3.02.
Same read-out and setting: as for AGGFQQRQGLKYCLPLTFCEHTGL [I20E], the figure is 2.95; as for AGGFQQRQGLKYCLPLTFCQHTGL [I20Q], 2.62.
Turning to AGGFQQRQGLKYCLPLTFCAHTGL [I20A], the protein stability index is 1.89.
Turning to AGGFQQRQGLKYCLPLTFCSHTGL [I20S], the protein stability index was 2.43.
Regarding AGGFQQRQGLKYCLPLTFCMHTGL [I20M], the protein stability index turned out to be 2.73.
Regarding AGGFQQRQGLKYCLPLTFCCHTGL [I20C], the protein stability index was determined as 3.77.
AGGFQQRQGLKYCLPLTFCDHTGL [I20D]: the protein stability index amounted to 2.93.
Regarding AGGFQQRQGLKYCLPLTFCWHTGL [I20W], the protein stability index is 1.25.
Regarding AGGFQQRQGLKYCLPLTFCKHTGL [I20K], the protein stability index is 1.6.

A further data set covers variants of B2. Described as above. Conditions: c terminus: a fixed tail appended.
With CVPTDEARAFAEKNGLSFIETSAL [A1C], the protein stability index was 1.45.
For the variant GVPTDEARAFAEKNGLSFIETSAL [A1G], the protein stability index came out at 2.77.
Consider HVPTDEARAFAEKNGLSFIETSAL [A1H], for which the protein stability index worked out at 2.63.
Still for that read-out and setting: to DVPTDEARAFAEKNGLSFIETSAL [A1D] belongs 2.82; to EVPTDEARAFAEKNGLSFIETSAL [A1E], 2.72.
With FVPTDEARAFAEKNGLSFIETSAL [A1F], the protein stability index is 3.39.

The values above are taken from the supplement of paper PMC10567573.
